The results in this text go back to paper PMC9731866, “Structures of a constitutively active mutant of human IDH3 reveal new insights into the mechanisms of allosteric activation and the catalytic reaction” (The Journal of Biological Chemistry, 2022).

For orientation: stoichiometry N means a count of units in the complex or per binding partner.

Test [1] has as its target αMβ heterodimer of HsIDH3 (α-Q139A with β) (human) (UniProt P50213). Put plainly: SEC-MALS; high concentration (10 mg/ml); Superdex 200 10/300 GL, 24 °C, 10 mM Hepes pH 7.4, 200 mM NaCl, 5 mM β-ME; N counts the units (heterodimers or heterotetramers) in the oligomer.
Test [2] shares this target. Put plainly: SEC-MALS; low concentration (1 mg/ml); Superdex 200 10/300 GL, 24 °C, 10 mM Hepes pH 7.4, 200 mM NaCl, 5 mM β-ME; N counts the units (heterodimers or heterotetramers) in the oligomer. A general note: SEC sorts molecules by how far they enter the pores of the column.
The target in test [3] is αMβαMγ heterotetramer of HsIDH3 (α-Q139A in both heterodimers) (human) (UniProt P50213). Put plainly: SEC-MALS; high concentration (10 mg/ml); Superdex 200 10/300 GL, 24 °C, 10 mM Hepes pH 7.4, 200 mM NaCl, 5 mM β-ME; N counts the units (heterodimers or heterotetramers) in the oligomer.
Test [4] has the same target. Put plainly: SEC-MALS; low concentration (1 mg/ml); Superdex 200 10/300 GL, 24 °C, 10 mM Hepes pH 7.4, 200 mM NaCl, 5 mM β-ME; N counts the units (heterodimers or heterotetramers) in the oligomer.

In the case of “αMβ heterodimer of HsIDH3 (α-Q139A with β) (from UniProt P50213 28-366; O43837 35-360) (complex)”, the stoichiometry N in test [1] and in test [2] was 2 in each case.
In the case of “αMβαMγ heterotetramer of HsIDH3 (α-Q139A in both heterodimers) (from UniProt P50213 28-366; O43837 35-360; P51553 40-393) (complex)”, the stoichiometry N in test [3] and in test [4] was 2 throughout.
